To fix the notation:
B1: IL6R-BP538/IL6R-L (antibody, human IgG1, kappa)
heavy: QVQLQESGPGLVKPSETLSLTCAVSGHSISHDHAWSWVRQPPGEGLEWIGFISYSGITNYNPSLQGRVTISRDNSKNTLYLQMNSLRAEDTAVYYCARSLARTTAMDYWGEGTLVTVSSASTKGPSVFPLAPSSKSTSGGTAALGCLVKDYFPEPVTVSWNSGALTSGVHTFPAVLQSSGLYSLSSVVTVPSSSLGTQTYICNVNHKPSNTKVDKKVEPKSCDKTHTCPPCPAPELLGDDSVFLFPPKPKDTLMISRTPEVTCVVIDVSEEDGEVKFNWYVDGVEVHNAKTKPREEQYNSTYRVVSVLTVLHQDWLNGKEYKCKVSNKALPRPIEKTISKAKGQPREPQVYTLPPSRDELTKNQVSLTCLVKGFYPSDIAVEWESNGQPENNYKTTPPVLDSDGSFFLYSKLTVDKSRWQQGNVFSCSVMHEALHNHYTQESLSLSP
light: not shown
notes: Alterations in EU numbering, introduced into IL6R-B3
B2: IL6R-BP540/IL6R-L (antibody, human IgG1, kappa)
heavy: B1 heavy with E274P, Y298D
light: not shown
notes: as for B1
B3: IL6R-BP550/IL6R-L (antibody, human IgG1, kappa)
heavy: B1 heavy with S269G, E274D, Y298D
light: not shown
notes: as for B1
B4: IL6R-BP551/IL6R-L (antibody, human IgG1, kappa)
heavy: B1 heavy with E274D, Y298D
light: not shown
notes: as for B1
B5: IL6R-BP539/IL6R-L (antibody, human IgG1, kappa)
heavy: B1 heavy with S269G, E274P, Y298D
light: not shown
notes: as for B1
B6: IL6R-BP556/IL6R-L (antibody, human IgG1, kappa)
heavy: B1 heavy with S269G, Y298D
light: not shown
notes: as for B1
B7: IL6R-BP112/IL6R-L (antibody, human IgG1, kappa)
heavy: B1 heavy with D239G, I266V, E270H, R332A
light: not shown
notes: Alterations introduced into IL6R-B3
B8: IL6R-BP116/IL6R-L (antibody, human IgG1, kappa)
heavy: B1 heavy with D239G, I266V, E270H, G273P, K328T, R332A
light: not shown
notes: as for B7
B9: IL6R-BP102/IL6R-L (antibody, human IgG1, kappa)
heavy: B1 heavy with D239G, I266V, S269Q, E270H, G273P, R332A
light: not shown
notes: as for B7
B10: IL6R-BP103/IL6R-L (antibody, human IgG1, kappa)
heavy: B1 heavy with D239G, I266V, S269V, E270H, G273P, R332A
light: not shown
notes: as for B7
B11: IL6R-BP106/IL6R-L (antibody, human IgG1, kappa)
heavy: B1 heavy with D239G, I266V, E270D, G273P, R332A
light: not shown
notes: as for B7
B12: IL6R-2B002/IL6R-L (antibody, human IgG1, kappa)
heavy: B1 heavy with E235D, D239G, I266V, E270H, G273P, R332A
light: not shown
notes: as for B7
B13: IL6R-2B128/IL6R-L (antibody, human IgG1, kappa)
heavy: B1 heavy with D239G, I266V, E270H, G273P, Y298D, R332A
light: not shown
notes: as for B7
B14: IL6R-BP078/IL6R-L (antibody, human IgG1, kappa)
heavy: B1 heavy with D239G, I266V, E270H, G273P, R332M
light: not shown
notes: as for B7
B15: IL6R-2B169/IL6R-L (antibody, human IgG1, kappa)
heavy: B1 heavy with D239G, I266V, E270H, G273P, V325I, R332A
light: not shown
notes: as for B7
B16: IL6R-BP110/IL6R-L (antibody, human IgG1, kappa)
heavy: B1 heavy with D239G, I266V, E270N, G273P, R332A
light: not shown
notes: as for B7
B17: IL6R-BP107/IL6R-L (antibody, human IgG1, kappa)
heavy: B1 heavy with D239G, I266V, G273P, R332A
light: not shown
notes: as for B7
B18: IL6R-2B172/IL6R-L (antibody, human IgG1, kappa)
heavy: B1 heavy with D239G, I266V, E270H, G273P, V325M, R332A
light: not shown
notes: as for B7
B19: IL6R-BP100/IL6R-L (antibody, human IgG1, kappa)
heavy: B1 heavy with D239G, I266V, S269A, E270H, G273P, R332A
light: not shown
notes: as for B7
B20: IL6R-2B171/IL6R-L (antibody, human IgG1, kappa)
heavy: B1 heavy with D239G, I266V, E270H, G273P, V325L, R332A
light: not shown
notes: as for B7

Changes are numbered by the printed parent chain.

The first experiment addresses T1, FcγRIIb (human, UniProt P31994 43-217).
T1 construct: extracellular domain; also called FcgRIIb; CD32B
T1 sequence (looked up): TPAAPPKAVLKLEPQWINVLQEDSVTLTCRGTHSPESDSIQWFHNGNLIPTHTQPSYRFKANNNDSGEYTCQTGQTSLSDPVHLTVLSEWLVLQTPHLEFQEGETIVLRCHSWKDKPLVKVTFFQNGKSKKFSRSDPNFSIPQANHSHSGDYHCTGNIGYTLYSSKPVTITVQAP
In words: SPR (Biacore); parent = IL6R-B3/IL6R-L. For orientation: In SPR one partner is held on a chip, and binding of the other changes the refractive index at the surface.
With B1, the “KD(IIb) of the parent polypeptide/KD(IIb) of the altered polypeptide” value (“KD(IIb)” for short) was found to be 587 fold.

For B2, the “KD(IIb)” value was 541 fold.

B3: the “KD(IIb)” value was found to be 406 fold.

In the case of B4, the “KD(IIb)” value is 482 fold.

Take B5: the “KD(IIb)” value came to 369 fold.

For the molecule B6, the “KD(IIb)” value was determined as 370 fold.

The target of a further experiment is T2, FcγRIIa type R (human, UniProt P12318 34-217).
T2 chain: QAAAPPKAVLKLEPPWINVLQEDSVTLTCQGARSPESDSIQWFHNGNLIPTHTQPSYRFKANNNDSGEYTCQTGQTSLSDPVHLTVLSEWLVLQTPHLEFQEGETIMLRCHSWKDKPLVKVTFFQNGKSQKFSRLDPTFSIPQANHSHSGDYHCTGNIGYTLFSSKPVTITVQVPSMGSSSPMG
The experiment can be described thus: SPR (Biacore); parent = IL6R-B3/IL6R-L.
With B1, the “KD(IIaR) of the parent polypeptide/KD(IIaR) of the altered polypeptide” value (“KD(IIaR)” below) came to 5.4 fold.

Take B2: the “KD(IIaR)” value came to 5.2 fold.

Take B3: the “KD(IIaR)” value amounted to 3.3 fold.

For B4, the “KD(IIaR)” value came to 4.5 fold.

As to B5, the “KD(IIaR)” value was 3.4 fold.

For the molecule B6, the “KD(IIaR)” value came out at 3.7 fold.

The target of a further experiment is T3, FcγRIa (human, UniProt P12314 16-292).
T3 construct: Whole entry named; also called FcgRIa; CD64A
T3 sequence (P12314 16-292): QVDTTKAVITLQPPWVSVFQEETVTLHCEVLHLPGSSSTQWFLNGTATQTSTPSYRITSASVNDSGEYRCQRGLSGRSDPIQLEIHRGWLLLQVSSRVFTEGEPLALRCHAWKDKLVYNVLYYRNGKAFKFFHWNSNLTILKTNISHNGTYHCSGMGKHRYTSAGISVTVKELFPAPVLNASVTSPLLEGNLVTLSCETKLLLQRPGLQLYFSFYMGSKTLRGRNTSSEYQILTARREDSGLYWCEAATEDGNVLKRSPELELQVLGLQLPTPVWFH
The experiment can be described thus: SPR (Biacore), captured antibody, soluble FcγR.
The Kd is the concentration at which binding is half-saturated. Higher therefore signals lower affinity. With B1, the Kd is 55 nM.

As to B2, the Kd was 96 nM.

B3 yielded a Kd of 25 nM.

As for B4, binding was characterised by a dissociation constant (Kd) of 32 nM.

B5 showed a Kd of 64 nM.

In turn, B6 came in with a Kd of 43 nM.

The target in the next experiment is T4, FcγRIIa type H (human, UniProt P12318 34-217).
T4 construct: extracellular domain; also called FcγRIIaH; FcgRIIaH
T4 sequence (looked up): T2 chain with R134H
In words: SPR (Biacore), captured antibody, soluble FcγR.
In the case of B1, the Kd came out at 3 µM.

Take B2: binding was characterised by a dissociation constant (Kd) of 4.6 µM.

For B3, binding was characterised by a dissociation constant (Kd) of 5 µM.

B4 registered a Kd of 2.8 µM.

Turning to B5, the Kd amounted to 5.6 µM.

B6 had a Kd of 5.8 µM.

The next experiment has as its target T1, FcγRIIb. In words: SPR (Biacore), captured antibody, soluble FcγR.
As to B1, the Kd is 5.3 nM.

For B2, the equilibrium dissociation constant (Kd) was determined as 5.7 nM.

With B3, binding was characterised by a dissociation constant (Kd) of 7.6 nM.

B4 registered a Kd of 6.4 nM.

B5 gave a Kd of 8.4 nM.

Consider B6, for which the Kd was found to be 8.4 nM.

The target of a further experiment is T2, FcγRIIa type R. The experiment can be described thus: SPR (Biacore), captured antibody, soluble FcγR.
Turning to B1, the affinity, expressed as Kd, was 200 nM.

The molecule B2 registered a Kd of 210 nM.

B3: the affinity, expressed as Kd, was 340 nM.

Molecule B4 registered a Kd of 250 nM.

Consider B5, for which the Kd was found to be 330 nM.

B6 returned a Kd of 300 nM.

The target of the next experiment is T5, FcγRIa extracellular domain with C-terminal His tag (human, UniProt P12314 16-292).
T5 construct: also called FcgRIa; not shown: His tag attached to the C terminus
T5 sequence (P12314 16-292): as above
In words: SPR binding amount, relative to IL6R-BF648/IL6R-L.
On to B7, for which the “relative binding activity (IL6R-BF648/IL6R-L = 100)” value (shortened to “relative binding activity”) was 119.

Consider B8, for which the “relative binding activity” value was 110.

With B9, the “relative binding activity” value was 104.

In the case of B10, the “relative binding activity” value amounted to 56.

On to B11, for which the “relative binding activity” value came out at 127.

Take B12: the “relative binding activity” value worked out at 118.

Regarding B13, the “relative binding activity” value was determined as 95.

B14: the “relative binding activity” value came out at 106.

For B15, the “relative binding activity” value was 73.

As for B16, the “relative binding activity” value came to 105.

With B17, the “relative binding activity” value was 123.

On to B18, for which the “relative binding activity” value is 140.

As for B19, the “relative binding activity” value amounted to 121.

As for B20, the “relative binding activity” value was 116.

Another experiment deals with T6, FcγRIIa type H extracellular domain with C-terminal His tag (human, UniProt P12318 34-217).
T6 construct: extracellular domain; also called FcγRIIaH; FcgRIIaH; not shown: His tag attached to the C terminus
T6 sequence (looked up): T2 chain with R134H
The experiment can be described thus: SPR binding amount, relative to IL6R-BF648/IL6R-L.
Turning to B7, the “relative binding activity” value is 113.

Turning to B8, the “relative binding activity” value is 110.

As to B9, the “relative binding activity” value came out at 66.

On to B10, for which the “relative binding activity” value was 69.

B11: the “relative binding activity” value was determined as 110.

Take B12: the “relative binding activity” value amounted to 147.

B13: the “relative binding activity” value was determined as 37.

On to B14, for which the “relative binding activity” value was determined as 89.

Consider B15, for which the “relative binding activity” value was 83.

As for B16, the “relative binding activity” value was 127.

As to B17, the “relative binding activity” value stood at 114.

For B18, the “relative binding activity” value amounted to 179.

Take B19: the “relative binding activity” value was determined as 128.

For B20, the “relative binding activity” value worked out at 115.

The target of the next experiment is T7, FcγRIIb extracellular domain with C-terminal His tag (human, UniProt P31994 43-217).
T7 construct: extracellular domain; For crystallography it was expressed with kifunensine and trimmed with Endo F1; also called FcgRIIb; FcγRIIb extracellular region; not shown: His tag attached to the C terminus
T7 sequence (looked up): T1 sequence (looked up)
The experiment can be described thus: SPR binding amount, relative to IL6R-BF648/IL6R-L.
As for B7, the “relative binding activity” value turned out to be 157.

For B8, the “relative binding activity” value is 108.

On to B9, for which the “relative binding activity” value worked out at 106.

As for B10, the “relative binding activity” value was found to be 107.

B11: the “relative binding activity” value turned out to be 116.

Regarding B12, the “relative binding activity” value turned out to be 116.

Regarding B13, the “relative binding activity” value is 103.

In the case of B14, the “relative binding activity” value came to 105.

Turning to B15, the “relative binding activity” value is 104.

Consider B16, for which the “relative binding activity” value was found to be 101.

In the case of B17, the “relative binding activity” value was determined as 118.

For the molecule B18, the “relative binding activity” value is 132.

B19: the “relative binding activity” value came out at 110.

B20: the “relative binding activity” value came to 113.

Source of the values: patent US20210261648A1 (published 2021).
